Results taken from publication PMC2828450, “Crystal structure of the signaling helix coiled-coil domain of the β1 subunit of the soluble guanylyl cyclase” (BMC Structural Biology, 2010).
Where “and” joins values, the source holds several entries; their conditions need not be identical. Equal values may be shown once.

Legend:
[1] = molecular target: sGC beta1 H-NOXA domain H-NOXA (UniProt Q02153); conditions: cited from earlier work
[2] = molecular target: sGC beta1 catalytic domain catalytic domain (UniProt Q02153); conditions: cited from earlier work
[3] = molecular target: the molecule itself; experiment: SEC; analytic gel filtration on a Superdex 75 column calibrated with Mw standards, before crystallization; major 38.5 kD and minor 19.5 kD species

For “sGC beta1 H-NOXA domain H-NOXA (from UniProt Q02153)”, the Kd [1] is given as < 60 µM.

In the case of “sGC beta1 catalytic domain catalytic domain (from UniProt Q02153)”, the Kd [2] is listed as 6 µM.

B1: Rattus norvegicus soluble guanylyl cyclase β1 subunit coiled-coil domain, residues 348-409, I371M (domain or fragment)
chain: GSHMATRDLVLLGEQFREEYKLTQELEMLTDRLQLTLRALEDEKKKTDTLLYSVLPPSVANELRHK
modifications: not fully specified (residues 4, 28); printed as gshmATRDLVLLGEQFREEYKLTQELE**M**LTDRLQLTLRALEDEKKKTDTLLYSVLPPSVANELRHK; also: expressed with selenomethionine (Met replaced by SeMet)
notes: N-terminal cloning artefact left after thrombin cleavage of the pET15b tag; The printed calculated mass of 7712.86 Da fits GSHM + 348-409 with I371M (my calculation; wild type would be about 7694.8 Da), and only the I371M construct's purification is described; One molecule is therefore used for all three experiments; also called sGCβ1 CC; rsGCβ1 CC domain; source: E. coli BL21 (DE3) pLysS, …
With B1 the “stoichiometry N” value [3] was 4 and 2.
